Results published in patent US20030091564A1 (published 2003).

B1: trimeric murine CD40-L (ligand)
chain: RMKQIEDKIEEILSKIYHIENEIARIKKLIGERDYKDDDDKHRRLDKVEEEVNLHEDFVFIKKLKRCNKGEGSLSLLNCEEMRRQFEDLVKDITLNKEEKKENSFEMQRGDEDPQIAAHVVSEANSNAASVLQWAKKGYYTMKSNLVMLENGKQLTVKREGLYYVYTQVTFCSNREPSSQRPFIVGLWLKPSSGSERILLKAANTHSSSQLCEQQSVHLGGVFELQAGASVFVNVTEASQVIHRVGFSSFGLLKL
notes: also called Murine Trimer; muCD40LT
B2: trimeric human CD40-L (ligand)
chain: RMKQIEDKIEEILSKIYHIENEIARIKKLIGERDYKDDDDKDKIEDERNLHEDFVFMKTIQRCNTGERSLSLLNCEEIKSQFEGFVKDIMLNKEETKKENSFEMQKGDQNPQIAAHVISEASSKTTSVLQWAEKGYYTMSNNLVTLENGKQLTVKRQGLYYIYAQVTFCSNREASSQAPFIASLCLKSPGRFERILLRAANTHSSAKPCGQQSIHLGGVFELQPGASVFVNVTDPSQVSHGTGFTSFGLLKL
notes: Leader left out; also called Human Trimer; CD40-L trimer
B3: CD40-L/FC2 soluble CD40-L/Fc fusion protein (Fc fusion)
chain: DYKDDDDKRSCDKTHTCPPCPAPELLGGPSVFLFPPKPKDTLMISRTPEVTCVVVDVSHEDPEVKFNWYVDGVEVHNAKTKPREEQYNSTYRVVSVLTVLHQDWLNGKEYKCKVSNKALPAPIEKTISKAKGQPREPQVYTLPPSRDELTKNQVSLTCLVKGFYPSDIAVEWESNGQPENNYKTTPPVLDSDGSFFLYSKLTVDKSRWQQGNVFSCSVMHGGGGSGGGGSGGGGSSSDKIEDERNLHEDFVFMKTIQRCNTGERSLSLLNCEEIKSQFEGFVKDIMLNKEETKKENSFEMQKGDQNPQIAAHVISEASSKTTSVLQWAEKGYYTMSNNLVTLENGKQLTVKRQGLYYIYAQVTFCSNREASSQAPFIASLCLKSPGRFERILLRAANTHSSAKPCGQQSIHLGGVFELQPGASVFVNVTDPSQVSHGTGFTSFGLLKL
notes: also called dimeric human CD40-L; Human Dimer
B4: wild type CD40 ligand/zipper domain fusion protein expressed in yeast (ligand)
chain: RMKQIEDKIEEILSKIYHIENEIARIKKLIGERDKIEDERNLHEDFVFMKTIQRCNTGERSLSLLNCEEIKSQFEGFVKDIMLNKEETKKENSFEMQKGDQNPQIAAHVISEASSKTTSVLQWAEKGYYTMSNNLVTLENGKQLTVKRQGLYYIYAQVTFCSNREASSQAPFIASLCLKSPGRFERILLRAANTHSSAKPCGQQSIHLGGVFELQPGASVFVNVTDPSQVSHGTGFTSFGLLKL
notes: also called WT
B5: dimeric murine CD40-L (Fc fusion, not shown: a dimerising Fc or GST)
chain: HRRLDKVEEEVNLHEDFVFIKKLKRCNKGEGSLSLLNCEEMRRQFEDLVKDITLNKEEKKENSFEMQRGDEDPQIAAHVVSEANSNAASVLQWAKKGYYTMKSNLVMLENGKQLTVKREGLYYVYTQVTFCSNREPSSQRPFIVGLWLKPSSGSERILLKAANTHSSSQLCEQQSVHLGGVFELQAGASVFVNVTEASQVIHRVGFSSFGLLKL
notes: the whole entry is named; also called Murine Dimer

How the values were obtained:
CD40/Fc fusion protein [1] = biological target: T1, CD40/Fc fusion protein (human, UniProt P25942 21-193); assay: BIAcore biosensor, CD40/Fc captured by goat anti-human IgG1 Fc; first experiment
T1 construct: extracellular domain; also called C40/Fc; CD40Fc recombinant receptor
T1 sequence (P25942 other isoform, or with tags, fused parts or gaps limits assumed): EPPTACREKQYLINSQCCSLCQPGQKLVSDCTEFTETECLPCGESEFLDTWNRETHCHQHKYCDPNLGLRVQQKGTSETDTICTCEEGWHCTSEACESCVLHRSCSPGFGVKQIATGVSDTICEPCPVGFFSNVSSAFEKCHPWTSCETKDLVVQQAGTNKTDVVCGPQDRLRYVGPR
Method: (§1) This example illustrates the binding affinities of several different CD40-L constructs. Affinity experiments were conducted by biospecific interaction analysis (BIA) using a biosensor, an instrument that combines a biological recognition mechanism with a sensing device or transducer. An exemplary biosensor is BIAcore™, from Pharmacia Biosensor AB (Uppsala, Sweden; see Fägerstam L. G., Techniques in Protein Chemistry II, ed. J. J. Villafranca, Acad. Press, NY, 1991). BIAcore™ uses the optical phenomenon surface plasmon resonance (Kretschmann and Raether, Z. Naturforschung, Teil. A 23:2135, 1968) to monitor the interaction of two biological molecules.
(§2) The biosensor chips were coated with goat anti-human IgG₁ Fc, which was used to bind CD40/Fc (prepared as described in Example 1) to the chip. The different constructs of CD40-L were then added at increasing concentrations; the chip was regenerated between the different constructs by the addition of sodium hydroxide. Two separate experiments were performed. In the first, the binding of a dimeric human CD40-L (Example 14), trimeric human CD40-L (Example 15), dimeric murine CD40-L (prepared substantially as described in Example 14 for human CD40-L/FC) and trimeric murine CD40-L (prepared substantially as described for the human CD40-L in Example 15) were compared. In the second experiment, the binding of trimeric human CD40-L was compared to the binding of two different preparations of monomeric human CD40-L prepared as described in Example 18. The resultant data were analyzed to determine the affinity and association rate constants of the different CD40-L constructs. Results are shown in Table 12 below, and in FIGS. 18 and 19.

CD40/Fc fusion protein [2] = biological target: T1, CD40/Fc fusion protein; assay: BIAcore biosensor, CD40/Fc captured by goat anti-human IgG1 Fc; first experiment; K1 (site 1)
Method: as §1, §2

CD40/Fc fusion protein [3] = biological target: T1, CD40/Fc fusion protein; assay: BIAcore biosensor, CD40/Fc captured by goat anti-human IgG1 Fc; first experiment; K2 (site 2)
Method: as §1, §2

CD40/Fc fusion protein [4] = biological target: T1, CD40/Fc fusion protein; assay: BIAcore biosensor, CD40/Fc captured by goat anti-human IgG1 Fc; second experiment
Method: as §1
(§3) The biosensor chips were coated with goat anti-human IgG₁ Fc, which was used to bind CD40/Fc (prepared as described in Example 1) to the chip. The different constructs of CD40-L were then added at increasing concentrations; the chip was regenerated between the different constructs by the addition of sodium hydroxide. Two separate experiments were performed. […] The resultant data were analyzed to determine the affinity and association rate constants of the different CD40-L constructs. […]

CD40/Fc fusion protein [5] = biological target: T1, CD40/Fc fusion protein; assay: BIAcore biosensor, CD40/Fc captured by goat anti-human IgG1 Fc; second experiment; K1 (site 1)
Method: as §1, §3

CD40/Fc fusion protein [6] = biological target: T1, CD40/Fc fusion protein; assay: BIAcore biosensor, CD40/Fc captured by goat anti-human IgG1 Fc; second experiment; K2 (site 2)
Method: as §1, §3

CD40 on cells = CD40 on cells (UniProt P25942 21-277, limits assumed); assay: cell-based or functional assay
Sequence of CD40 on cells (P25942 21-277 limits assumed): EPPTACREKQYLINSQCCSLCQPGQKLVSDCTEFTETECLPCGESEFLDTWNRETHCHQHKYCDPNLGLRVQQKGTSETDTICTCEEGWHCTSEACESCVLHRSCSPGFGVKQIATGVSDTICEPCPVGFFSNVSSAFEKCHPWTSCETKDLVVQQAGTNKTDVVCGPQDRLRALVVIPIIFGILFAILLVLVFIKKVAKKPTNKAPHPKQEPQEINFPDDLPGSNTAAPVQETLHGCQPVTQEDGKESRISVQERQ

CD40/Fc fusion protein [7] = biological target: T1, CD40/Fc fusion protein; assay: biosensor assay substantially as in Example 22; yeast-expressed protein
Method: as §2
Mutant 18PP had only a single mutation in the molecule, which was sufficient to affect secretion in yeast. Mutant 41 had two mutations, both of which were in the isoleucine residues of the zipper domain. The mutations in the zipper improve secretion from yeast without apparent effect on activity.

Binder	Site 1 (mol/mol CD40/Fc) (CD40/Fc fusion protein [1])	Site 2 (mol/mol CD40/Fc) (CD40/Fc fusion protein [1])	Ka (CD40/Fc fusion protein [2])	Ka (CD40/Fc fusion protein [3])	Site 2 (mol/mol CD40/Fc) (CD40/Fc fusion protein [4])	Ka (CD40/Fc fusion protein [5])	Ka (CD40/Fc fusion protein [6])	B-cell proliferation (U/µg), Experiment 2 (CD40 on cells)	Ka (CD40/Fc fusion protein [7])
B1	0.02 mol/mol CD40/Fc	0.44 mol/mol CD40/Fc	6e+10 M⁻¹	1.6e+08 M⁻¹					
B2	0.04 mol/mol CD40/Fc	0.68 mol/mol CD40/Fc	5e+09 M⁻¹	7.5e+07 M⁻¹	0.41 mol/mol CD40/Fc	6.6e+08 M⁻¹	2.6e+07 M⁻¹		
B3	0.013 mol/mol CD40/Fc	0.049 mol/mol CD40/Fc	1.6e+11 M⁻¹	7e+08 M⁻¹					
B4								15 U/µg	7.7e+07 M⁻¹
B5	0.05 mol/mol CD40/Fc	0.14 mol/mol CD40/Fc							
